A short description of data set [1]: Circular dichroism spectroscopy analysis (CD spectra, variable temperature measurement, refolding). It counts as physicochemical. The procedure: The respective Y variant was diluted to 0.5 mg/ml in PBS. A CD spectrum at 250-195 nm was obtained at 20° C. In addition, a variable temperature measurement (VTM) was performed to determine the melting temperature (Tm). In the VTM, absorbance was measured at 221 nm while the temperature was raised from 20° C. to 90° C. with a temperature gradient of 5° C./min. A new CD spectrum was obtained at 20° C. after the heating procedure, in order to study the refolding ability of the Y variants. The CD measurements were performed on a Jasco J-810 spectropolarimeter (Jasco Scandinavia AB) using a cell with an optical path length of 1 mm.
(§1) Produced Y variants were subjected to CD and SPR analyses according to the methods described in Example 1.
(§2) The Y variants were cloned, produced and characterized according to the general methods described in Example 1. Produced Y variants with point mutations and/or N-terminal or C-terminal extensions were subjected to CD and SPR analyses as described in Example 1.
(§3) Produced Y variants were subjected to CD and SPR analyses according to the methods described in Example 1. In addition, CD spectra of selected IL-6 binding variants were also recorded at 60, 70, 80 and 90° C.
(§4) The Y variants were cloned, produced and characterized according to the general methods described in Example 1. Produced Y variants with point mutations were subjected to CD and SPR analyses as described in Example 1. In addition, CD spectra of the IL-6 binding variants were also recorded at 60, 70, 80 and 90° C.
(In general: CD spectra are sensitive to the conformation of chiral molecules.)

A further data set has as its target T1, insulin (Homo sapiens, UniProt P01308).
T1 construct: purchased Roche 1376497
In words: Kinetic analysis using surface plasmon resonance (Biacore T200), immobilized insulin. It counts as binding. How it is done: Kinetic constants (ka and kd) and affinities (KD) were determined for His6-tagged Y variants using a Biacore T200 instrument (GE Healthcare). Target proteins C4, IL-6 and insulin, respectively, were immobilized in separate flow cells on the carboxylated dextran layer of different CM5 chip surfaces (GE Healthcare). Immobilization was performed using amine coupling chemistry according to the manufacturer's protocol and PBS pH 7.4 supplemented with 0.1 Tween20 (PBST 0.1%) as running buffer. The ligand immobilization levels on the surfaces were 3280-8830 RU for C4, 495-1184 RU for IL-6, and 270-282 RU for insulin. One flow cell surface on each chip was activated and deactivated for use as blank during analyte injections. In the kinetic experiment, PBST 0.1% was used as running buffer at a flow rate of 30 μl/min. The analytes, i.e. Y variants, were each diluted in PBST 0.1 buffer at concentrations of 1000, 500, 100, 50 and 10 nM and injected for 5 min, followed by dissociation in running buffer for 3 min. After dissociation, the surfaces were regenerated with one injection of 30 μl 10 mM HCl. Kinetic constants were calculated from the sensorgrams using the Langmuir 1:1 model of Biacore T200 Evaluation software 2.0 (GE Healthcare).
as §1, §2, §3, §4
(Surface plasmon resonance follows binding to a sensor surface in real time, without labels.)

Where [2] appears, read: Table 2, Ylib001Naive.I selection, MGSSHHHHHHGSS-[Y#####]-ASGSVD, 0.5 mg/ml in PBS, 221 nm, 20-90° C.
[3] abbreviates: Table 3, mutation study 1, MGSSHHHHHHGSS-[Y#####].
[4] abbreviates: Table 4, mutation study 2, MGSSHHHHHHGSS-[Y#####].
[5] abbreviates: Table 2, His6-tagged Y variant, MGSSHHHHHHGSS-[Y#####]-ASGSVD.

“Also recorded” adds a separate entry of the source.

A word on the Kd: it is the equilibrium constant for the complex coming apart.

T1 sequence (P01308 25-54 limits assumed): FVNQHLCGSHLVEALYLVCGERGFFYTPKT
T1 sequence (P01308 90-110 limits assumed): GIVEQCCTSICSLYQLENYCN

“Y00032: insulin binding Y variant from Ylib001Naive.I, SEQ ID NO:90 (LAEAKEAAIAELDSKGVGAYQKSFIELAKSVEHVELLKEAILADLP; Engineered insulin binding Y variant)”: the “α-helical content / ability to fold into an α-helical structure” value in data set [1] (CD spectrum at 20° C.) was “considerably higher α-helical content; also recorded: good ability to fold into an α-helical structure”. The results for the Tm in data set [1] (setting [2]), in data set [1] (setting [3]) and in data set [1] (setting [4]) were 47 °C, 49 °C and 49 °C, respectively. Moreover, the Kd with insulin (setting [5]) is 50 nM; with insulin (setting [3]), 63 nM.

As for “Y00125: insulin binding Y variant, SEQ ID NO:106; differs from Y00032 by N in position 9 (LAEAKEAANAELDSKGVGAYQKSFIELAKSVEHVELLKEAILADLP; Engineered insulin binding Y variant)”, the Tm in data set [1] (setting [2]) came to 35 °C. For the same substance, the Kd with insulin (setting [5]) was 110 nM.

For “Y00263: insulin binding Y variant, Y00032 with D13K, SEQ ID NO:110 (LAEAKEAAIAELKSKGVGAYQKSFIELAKSVEHVELLKEAILADLP; Engineered insulin binding Y variant)”, the Tm in data set [1] (setting [3]) amounted to 43 °C. In the data set with insulin (setting [3]), this substance came in with a Kd of 130 nM.

In the case of “Y00264: insulin binding Y variant, Y00032 with K15Y, SEQ ID NO:111 (LAEAKEAAIAELDSYGVGAYQKSFIELAKSVEHVELLKEAILADLP; Engineered insulin binding Y variant)”, the Tm in data set [1] (setting [3]) was 48 °C. In the data set with insulin (setting [3]), this substance came in with a dissociation constant (Kd) of 64 nM.

For “Y00265: insulin binding Y variant, Y00032 with V17I, SEQ ID NO:112 (LAEAKEAAIAELDSKGIGAYQKSFIELAKSVEHVELLKEAILADLP; Engineered insulin binding Y variant)”, the Tm in data set [1] (setting [3]) turned out to be 47 °C. Also, the equilibrium dissociation constant (Kd) with insulin (setting [3]) was found to be 120 nM.

As to “Y00266: insulin binding Y variant, Y00032 with G18S, SEQ ID NO:113 (LAEAKEAAIAELDSKGVSAYQKSFIELAKSVEHVELLKEAILADLP; Engineered insulin binding Y variant)”, in data set [1] (setting [3]), the Tm turned out to be 50 °C. The same substance had a Kd in the data set with insulin (setting [3]) of 56 nM.

As for “Y00267: insulin binding Y variant, Y00032 with A19E, SEQ ID NO:114 (LAEAKEAAIAELDSKGVGEYQKSFIELAKSVEHVELLKEAILADLP; Engineered insulin binding Y variant)”, in data set [1] (setting [3]), the Tm stood at 48 °C. Besides, the dissociation constant Kd in the data set with insulin (setting [3]) was 59 nM.

Regarding “Y00268: insulin binding Y variant, Y00032 with K22I, SEQ ID NO:115 (LAEAKEAAIAELDSKGVGAYQISFIELAKSVEHVELLKEAILADLP; Engineered insulin binding Y variant)”, the Tm in data set [1] (setting [3]) amounted to 49 °C. In addition, binding in the data set with insulin (setting [3]) was characterised by a dissociation constant (Kd) of 84 nM.

As for “Y00269: insulin binding Y variant, Y00032 with S23K, SEQ ID NO:116 (LAEAKEAAIAELDSKGVGAYQKKFIELAKSVEHVELLKEAILADLP; Engineered insulin binding Y variant)”, the Tm in data set [1] (setting [3]) came to 50 °C. In addition, the Kd with insulin (setting [3]) came to 390 nM.

As to “Y00270: insulin binding Y variant, Y00032 with K22I + S23K, SEQ ID NO:117 (LAEAKEAAIAELDSKGVGAYQIKFIELAKSVEHVELLKEAILADLP; Engineered insulin binding Y variant)”, the Tm in data set [1] (setting [3]) and in data set [1] (setting [4]) was 52 °C throughout. In addition, binding in the data set with insulin (setting [3]) was characterised by a dissociation constant (Kd) of 77 nM.

On to “Y00271: insulin binding Y variant, Y00032 with E26Q, SEQ ID NO:118 (LAEAKEAAIAELDSKGVGAYQKSFIQLAKSVEHVELLKEAILADLP; Engineered insulin binding Y variant)”, for which, in data set [1] (setting [3]), the Tm was 49 °C. The same substance returned a Kd with insulin (setting [3]) of 47 nM.

For “Y00272: insulin binding Y variant, Y00032 with A28G, SEQ ID NO:119 (LAEAKEAAIAELDSKGVGAYQKSFIELGKSVEHVELLKEAILADLP; Engineered insulin binding Y variant)”, the Tm in data set [1] (setting [3]) stood at 34 °C. Binding in the data set with insulin (setting [3]) was characterised by a dissociation constant (Kd) of 110 nM.

On to “Y00273: insulin binding Y variant, Y00032 with E32Q, SEQ ID NO:120 (LAEAKEAAIAELDSKGVGAYQKSFIELAKSVQHVELLKEAILADLP; Engineered insulin binding Y variant)”, for which binding with insulin (setting [3]) was put at a Kd of 77 nM.

Regarding “Y00274: insulin binding Y variant, Y00032 with E35Q, SEQ ID NO:121 (LAEAKEAAIAELDSKGVGAYQKSFIELAKSVEHVQLLKEAILADLP; Engineered insulin binding Y variant)”, the Tm in data set [1] (setting [3]) stood at 53 °C. Binding with insulin (setting [3]) was put at a Kd of 56 nM.

Turning to “Y00275: insulin binding Y variant, Y00032 with E39Q, SEQ ID NO:122 (LAEAKEAAIAELDSKGVGAYQKSFIELAKSVEHVELLKQAILADLP; Engineered insulin binding Y variant)”, the Tm in data set [1] (setting [3]) turned out to be 54 °C. The substance further registered a Kd with insulin (setting [3]) of 59 nM.

Regarding “Y00276: insulin binding Y variant, Y00032 with A43K, SEQ ID NO:123 (LAEAKEAAIAELDSKGVGAYQKSFIELAKSVEHVELLKEAILKDLP; Engineered insulin binding Y variant)”, the Tm in data set [1] (setting [3]) is 50 °C. In the data set with insulin (setting [3]), the Kd worked out at 76 nM.

As to “Y00292: insulin binding Y variant, Y00032 with S23K + E35Q + E39Q, SEQ ID NO:124 (LAEAKEAAIAELDSKGVGAYQKKFIELAKSVEHVQLLKQAILADLP; Engineered insulin binding Y variant)”, the Tm in data set [1] (setting [4]) turned out to be 57 °C. This substance had a dissociation constant Kd in the data set with insulin (setting [4]) of 450 nM.

Take “Y00293: insulin binding Y variant, Y00270 with E35Q + E39Q, SEQ ID NO:125 (LAEAKEAAIAELDSKGVGAYQIKFIELAKSVEHVQLLKQAILADLP; Engineered insulin binding Y variant)”: the Tm in data set [1] (setting [4]) was 56 °C. The substance further had a Kd with insulin (setting [4]) of 490 nM.

In the case of “Y00294: insulin binding Y variant, Y00270 with E35Q + A43K, SEQ ID NO:126 (LAEAKEAAIAELDSKGVGAYQIKFIELAKSVEHVQLLKEAILKDLP; Engineered insulin binding Y variant)”, the Tm in data set [1] (setting [4]) came out at 54 °C. Also, the Kd in the data set with insulin (setting [4]) was 490 nM.

As for “Y00295: insulin binding Y variant, Y00270 with E35Q + E39Q + A43K, SEQ ID NO:127 (LAEAKEAAIAELDSKGVGAYQIKFIELAKSVEHVQLLKQAILKDLP; Engineered insulin binding Y variant)”, the Tm in data set [1] (setting [4]) turned out to be 52 °C. Moreover, binding with insulin (setting [4]) was put at a Kd of 580 nM.

Values taken from patent US11505576B2, “Polypeptides based on a scaffold” (AFFIBODY AB, priority 2018, dated 2022).
